Laboratory results published in PMC10268282, “Activator-induced conformational changes regulate division-associated peptidoglycan amidases” (Proceedings of the National Academy of Sciences of the …, 2023).

Target: T1, AmiB hydrolytic domain from Citrobacter rodentium (Citrobacter rodentium, UniProt A0A482PQR2 190-422)
T1 construct: AmiB peptidoglycan amidase, Citrobacter rodentium, hydrolytic (enzymatic) domain, cloned without the N-terminal AmiN domain; Construct limits and tags in SI Appendix; also called AmiB enzymatic domain
T1 sequence: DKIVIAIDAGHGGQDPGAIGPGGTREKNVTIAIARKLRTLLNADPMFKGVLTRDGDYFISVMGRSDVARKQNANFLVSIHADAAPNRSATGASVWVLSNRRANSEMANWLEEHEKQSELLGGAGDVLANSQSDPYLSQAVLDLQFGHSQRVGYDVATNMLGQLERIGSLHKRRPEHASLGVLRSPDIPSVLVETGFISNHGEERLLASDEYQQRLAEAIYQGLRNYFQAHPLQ
Assay: crystal structure; X-ray crystallography, 3.4 Å; molecular replacement with Alphafold models
Conditions: both partners purified

B1: EnvC LytM domain from Citrobacter rodentium (domain or fragment)
chain: MSRTGGLGSPRGQAYWPVRGPTLHRYGEQLQGELRWKGMVIGASEGTEVKAIADGRVILADWLQGYGLVVVVEHGKGDMSLYGYNQSALVSVGTQVRAGQPIALVGSSGGQGRPSLYFEIRRQGQAVNPQPWLGR
notes: EnvC, Citrobacter rodentium, LytM domain; Construct limits and tags in SI Appendix
  binding result: binds
